The DeepSol protein solubility set

Assay: soluble on expression in E. coli; label from the status in PepcDB or PDB records

Sequence | soluble on expression in E. coli
MEGAVIKVIGLGGAGNNAVNRMIEAGLSGVEFIAANTDAQVLAKSLADHRIQLGEKLTRGLGAGANPEIGEKAALEAEDLIAEALEGADLVFITAGMGGGTGTGSAPVVADIAKRLGALTVAVVTRPFSFEGPKRMRAAEEGIKKLKERVDAMVVVQNDRLLSAVDKKMTLKDAFLIADRVLYHGVKGITDVINLPGLINVDFADVKALLEGAGQVLMGIGAGRGENRVEEAAKSAIHSPLLERSIEGAKRLLLNVVGSEELSLMEAAEVVERIREATGHEDVDILYGVTYDERAQDELRVILIAAGFAESTVVPRPARPVDFPTGHVDLTNYDIPAFIRYGDGDYPPRRGN | soluble
MEADRKADNGNAGFSLVCHPEERITYRVGNKVICCLDGSRIGIQFETSTAGETYEVYHCVLESKSFLEKMIVLEHTIPFFLPLSDLENDLLFSNAKKFIDNVGDLLQAYVDRKEQVRLIKELFGHQISEIYHSLPYHMIEFSMDDCDCKFVVSLRYGDLLCELPTKVRILVWPMHHLSKKQCTSPGSPAIPVRLPFAEDAFRIQSLPEAYAEIMPNMPNEIRQLFQTSPS | soluble
MGHHHHHHSHMATNAKPVYKRILLKLSGEALQGTEGFGIDASILDRMAQEIKELVELGIQVGVVIGGGNLFRGAGLAKAGMNRVVGDHMGMLATVMNGLAMRDALHRAYVNARLMSAIPLNGVCDSYSWAEAISLLRNNRVVILSAGTGNPFFTTDSAACLRGIEIEADVVLKATKVDGVFTADPAKDPTATMYEQLTYSEVLEKELKVMDLAAFTLARDHKLPIRVFNMNKPGALRRVVMGEKEGTLITE | soluble
MTIAIVIGTHGWAAEQLLKTAEMLLGEQENVGWIDFVPGENAETLIEKYNAQLAKLDTTKGVLFLVDTWGGSPFNAASRIVVDKEHYEVIAGVNIPMLVETLMARDDDPSFDELVALAVETGREGVKALKAKPFAG | soluble
MKSSEEQALAGIELDDDAVMQYLLQNPDFFIRNARLVEQMHIPHPVRGTVSLVEWQLGRQRNQIGQLEEEITLLMEQAGLNEVLFNRLLQLQGNLAAASSLQDMLNRLQRWARDFGLAGANVRLFTDRWQIGAPSDFTHLGLSRHAFEPMRIQRLGNARHYLGSLNGPELLLLLPQAKQVGSVALSLLGKEGDLGVIVFSSRDIQHYQQGMGTVMLNQLSMLLPSLLERWIEPVLEHHHHHH | not soluble
MQEIEQRIYLAATYDTKGEEAEYLRQLLRRDGVMVVTVDVATSGQGSPAMVSAQEVAACYPQGAQAVFTGERGSAIVAMALAFERYLAGQRDVGAVLGIGGSGGTALVTPAMRALPVGVPKLMVSTMASGNVAPYVGPSDIAMMYSVTDVAGLNRISRRVLANAAGAIAGAFRQARQPIADDGRPAVGITMFGVTTPCVQHVTAALHDRYDCLVFHATGTGGQSMEKLADSGLLAGVLDLTTTEVCDFLFGGVLACTDDRFGAIARSGVPYVGSCGALDMVNFGALDTVPAACRERLLYPHNPQVTLMRTTAQENARQGAWIAERLNRCEGQVRFLIPEGGVSALDAPGQAFYDEAADAALFQALYDHVRQTDRRRLVRVPCHINDPLFARAAVEQFHEISQ | not soluble
MERSRDFLLQAKRDLEQARLSLREGFFEWAAFAAQQAAEKAVKAVFQRLGAVAWGHSVAGLLEELAQKLPVPEALLDAASELDKAYIPSRYPDALPEGAPFQRYRRGEAERLLGHAEAVYAYCEGVLSQMDEGGAPPPHRGGA | soluble
MADEINEIREEQEQLAPFDPSKKKKKKKVVIQEPVEDLAESSQTEKSDSLPVNDGLESSFTGMKKKKKKPTESSLLNNESVDAGEDLDEIANDEQEGEEGIVLQQRYPWEGSERDYIYDELLGRVFNILRENNPELAGDRRRTVMRPPQVLREGTKKTVFVNFMDLCKTMHRQPDHVMQYLLAELGTSGSLDGQQRLVVKGRFAPKNFEGILRRYITDYVICLGCKSPDTILSKENRLFFLRCEKCGSQRSVAPIKTGFVARVSRRKT | soluble
MAIPKIASYPLPVSLPTNKVDWRIDASRAVLLIHDMQEYFVHYFDSQAEPIPSLIKHIQQLKAHAKQAGIPVVYTAQPANQDPAERALLSDFWGPGLSEETAIIAPLAPESGDVQLTKWRYSAFKKSPLLDWLRETGRDQLIITGVYAHIGILSTALDAFMFDIQPFVIGDGVADFSLSDHEFSLRYISGRTGAVKSTQQACLEIAAQHSKLTGLSLRTMQHDVAAALNLSVDEVDVQENLLFLGLDSIRAIQLLEKWKAQGADISFAQLMEHVTLQQWWQTIQANLHQPCSA | not soluble
FEHVLVFAPTGSGKTRSIGIPNLFNYPYSVVCNDVKLTLFRTTSGYRERVLGHRCFCWAPADENRITHCYNPLSLISEDKIQRLTDIQRIAHILMPDNKKSDPIWQQASRKLFKVAVLYLLDTPERPTTLGEINRLVKQAGFDDWLASVLEETNHLDPEFYRNGYSYLNNHEKTRSSILETFSGYFELFDDPTIDAATARSDFDLRQLRREKITIYIGFTDDDMERLSPLLTLFWQQLISVMIKNIPDPVDEPYPLLCLIDEFSSLGRIERLRRSLKLLREYRVRCVLIMQYIAQTYEQYTHDEAKAFTNIKTKIAFATEDIFDAEYVSKLLGTRTVKVSAGSTSTQTQGYSESKSYNYQAIPLLRPDEVMRLPEDQTLIMRTGHAPVKAEQMVWY | not soluble
GMENIPFLRASTVPVIEYLDELKEIDASHIYTNYGPINQRFEQTIMSGFFQNRGAVTTVANATLGLMAAIQLKKRKKGKYALMPSFTFPATPLAAIWCGLEPYFIDISIDDWYMDKTVLWDKIEELKEEVAIVVPYATFGSWMNLEEYEELEKKGVPVVVDAAPGFGLMNGGMHYGQDFSGMIIYSFHATKPFGIGEGGLIYSKNEEDIQRIKRMGNFGFDTNRECTMMGFNCKMSEYAAAIGIATMKKWDDKLKERTRISEWYKQLLQSNGLMKKGWQLQKTEAVIQQFMPILCPEEVRNKQVIEDLKKQKIEARLYFSPSCHQQVLFRNYKSTDLTRTNKIAKRIVSLPLWEGMTKEIVEQIVICLGQKVVSADE | soluble
MKKLTFEIRSPAHQQNAIHAVQQILPDPTKPIVVTIQERNRSLDQNRKLWACLGDVSRQVEWHGRWLDAESWKCVFTAALKQQDVVPNLAGNGFVVIGQSTSRMRVGEFAELLELIQAFGTERGVKWSDEARLALEWKARWGDRAA | soluble
GKNLNWDFDANISFNRNKISGLPGDQFAQGWSKADNVFLQRNGMPIGTIYGFVEDGFYDNIAEVRADPFYAKESEAVCKAMVGEVKYKDFDGVAGITNADRQVIGDTNPDFTFGMTHNFTYKNFSLSFFLQGCVGGDIFNANLLEVTMSGIGNIPQNIYESRWTPENRENAKWPKAYAGYGRTMKLSDRYVEDGSYLRMKNINLGYKFISPFKGIESINLFASVSNVFTISGYSWYDPDVNSFGSDASRRGVDLFSYPSSRTFSFGLQCTF | not soluble
MAHHHHHHMQQSSLVRRNVFHYTTVLTACTRAGQMDAAMMVFRQMKANKVKPNVYTYTTLINGCANAEKLDLALRIFAEMRLVEVPPNVKTMTALISVCSRCGQWKKGFQVLDQCEDLFIAPNALTYTAAMDGCRRAGVCTPAIALLEARMTDPSQVRPNEVTYNTVLGACAAAKDHKAALRVYARMVADGYEPIEYTRELLREVFRGTSLDGLADKLMVRVRTSKWEAYVPDSDPATALRAAQEGG | not soluble
IEKNQIDMANGQELLISESLAVSQATTTFIDQLRILAPFGTDNTVPTFVFKEITPTQIRQIGADNAHLKFQMNQEGAQLDAIAFQMGPQADELAQGTADVAGQLSINEWNGRKKPQ | not soluble
MTIKLVATDMDGTFLDGNGRFDMDRLKSLLVSYKEKGIYFAVASGRGFLSLEKLFAGVRDDIIFIAENGSLVEYQGQDLYEATMSRDFYLATFEKLKTSPYVDINKLLLTGKKGSYVLDTVDETYLKVSQHYNENIQKVASLEDITDDIFKFTTNFTEETLEDGEAWVNENVPGVKAMTTGFESIDIVLDYVDKGVAIVELVKKLGITMDQVMAFGDNLNDLHMMQVVGHPVAPENARPEILELAKTVIGHHKERSVIAYMEGL | not soluble
